Where a chain is given by its changes, count along the chain named.
B1: PRT-145 (protein)
chain: MANQEIRYSEVTPYHITSVWTKGVTPPANFTQGEDVFHAPYVANQGWYDITKTFNGKDDLLCGAATAGNMLHWWFDQNKDQIKRYLEEHPEKQKINFNGEQMFDVKEAIDTKNHQLDSKLFEYFKEKAFPYLSTKHLGVFPDHVIDMFINGYRLSLTNHGPTPVKEGSKDPRGGIFDAVFTRGDQSKLLTSRHDFKEKTLNTISQLIKQELQSGKALGLSHTYANVRINHVINLWGADFDAEGNLEAIYVTDSDSNASIGMKKYFVGKNSAGKVAISAKEIKEDNIGAQVLGLFTLSTGQDSWNQTN
B2: PRT-146 (protein)
chain: B1 chain with T17K, S18T, T202D
B3: PRT-147 (protein)
chain: B1 chain with T17K, S18I, T202D
B4: PRT-148 (protein)
chain: MANQEIRYSEVTPYHVTSVWTKGVTPPANFTQGEDVFHAPYVANQGWYDITKTFNGKDDLLCGAATAGNMLHWWFDQNKDQIKRYLEEHPEKQKINFNGEQMFDVKEAIDTKNHQLDSKLFEYFKEKAFPYLSTKHLGVFPDHVIDMFINGYRLSLTNHGPTPVKRQSKDPRGGIFDAVFTRGDQSKLLTSRHDFKEKNLKEISDLIKKELTEGKALGLSHTYANVRINHVINLWGADFDSNGNLKAIYVTDSDSNASIGMKKYFVGVNSAGKVAISAKEIKEDNIGAQVLGLFTLSTGQDSWNKTN
B5: PRT-149 (protein)
chain: B4 chain with S168T, T181G, S186T, D301K
B6: PRT-13 (protein)
chain: MANQEIRYSEETPYHVTSVWTKGVTPPANFTQGEDVFHAPYKANQGWYDITKTFNGKDDLLCGAATAGNMLHWWFDQNKDQIEAYLKEHPEKQKINFNGEQMFDVKEAIDTKDDQTNSKLFEYFKEKAFPYLSTKHLGVFPDHVLDMFINGYRLSLTNHGPTPVKEGSKDPRGGIFDAVFTRGDQSKLLTSRHDFKEKTLKEISDLIKQELTEGKALALSHTYANVRINHVINLWGADFDSNGNLEAIYVTDSDSNASIGMKKYFVGVNSAGKVAISAKEIEDDNIGAQVLGLFTLSTGQDIWNQTN
B7: PRT-150 (protein)
chain: B4 chain with S168E, T181G, S186T, D301K
B8: PRT-151 (protein)
chain: B4 chain with E91D, S168T, T181G, Q185S, S186T, D301K
B9: PRT-152 (protein)
chain: B4 chain with D80T, K83E, E87K, E88K, R166E, Q167G, Q300K, N304E
B10: PRT-153 (protein)
chain: B4 chain with D80T, K83E, E87K, E88K, R166E, Q167G, Q300K, N304K
B11: PRT-154 (protein)
chain: B4 chain with D80T, K83E, R84A, E87K, E88K, R166E, Q167G, Q300K, D301K, N304E
B12: PRT-155 (protein)
chain: MANQEIRYSEVTPYHVTSVWTDGVTPPANFTQGEDVFHAPYVANQGWYDITKTFNGKDDLLCGAATAGNMLHWWFDQNSTQIEAYLKKHPEKQKINFNGEQMFDVKEAIDTKNHQLDSKLFEYFKEKAFPYLSTKHLGVFPDHVIDMFINGYRLSLTNHGPTPVKEGSKDPRGGIFDAVFTRGDQSKLLTSRHDFKEKNLKEISDLIKKELTEGKALGLSHTYANVRINHVINLWGADFDSNGNLKAIYVTDSDSNASIGMKKYFVGVNSAGKVAISAKEIKEDNIGAQVLGLFTLSTGKKSWEKTN
B13: PRT-156 (protein)
chain: B4 chain with A28T, N29D, V42K, R166E, Q167G, K305Q
B14: PRT-157 (protein)
chain: B4 chain with A28E, N29D, V42K, R166E, Q167G, K305Q
B15: PRT-158 (protein)
chain: B4 chain with A28T, N29D, T31I, Q32K, V42K, N44H, R166E, Q167G, T212Q, K305Q
B16: PRT-159 (protein)
chain: B4 chain with A28T, N29D, T31I, Q32K, V42K, N44G, R166E, Q167G, T212Q, K305Q

target: pooled human IgG

Which results are given for B1?
Enzyme Activity Endpoint Assay (purified): Fab'2: 735 ng/µL; Enzyme Activity Endpoint Assay (purified): Fc: 207 ng/µL; Enzyme Activity Endpoint Assay (purified): IgG: 0 ng/µL; Enzyme Activity Endpoint Assay (purified): scIgG: 0 ng/µL

With B2 as the protein, how does the Enzyme Activity Endpoint Assay (purified): Fab'2 read?
Its Enzyme Activity Endpoint Assay (purified): Fab'2 is 672 ng/µL.

And the Enzyme Activity Endpoint Assay (purified): Fc?
The Enzyme Activity Endpoint Assay (purified): Fc was 215 ng/µL.

And the Enzyme Activity Endpoint Assay (purified): IgG?
The Enzyme Activity Endpoint Assay (purified): IgG was 0 ng/µL.

What about the Enzyme Activity Endpoint Assay (purified): scIgG of the same protein?
The Enzyme Activity Endpoint Assay (purified): scIgG was 0 ng/µL.

What does the source list for B3?
Enzyme Activity Endpoint Assay (purified): Fab'2: 723 ng/µL; Enzyme Activity Endpoint Assay (purified): Fc: 206 ng/µL; Enzyme Activity Endpoint Assay (purified): IgG: 0 ng/µL; Enzyme Activity Endpoint Assay (purified): scIgG: 0 ng/µL

Which Enzyme Activity Endpoint Assay (purified): Fab'2 does the source give for B4 here?
The Enzyme Activity Endpoint Assay (purified): Fab'2 was 764 ng/µL.

What about the Enzyme Activity Endpoint Assay (purified): Fc of the same protein?
The Enzyme Activity Endpoint Assay (purified): Fc was 203 ng/µL.

What about the Enzyme Activity Endpoint Assay (purified): IgG of the same protein?
Its Enzyme Activity Endpoint Assay (purified): IgG is 0 ng/µL.

What about the Enzyme Activity Endpoint Assay (purified): scIgG of the same protein?
The Enzyme Activity Endpoint Assay (purified): scIgG was 0 ng/µL.

B5 was tested. Which Enzyme Activity Endpoint Assay (purified): Fab'2 did it give?
The Enzyme Activity Endpoint Assay (purified): Fab'2 was 831 ng/µL.

And the Enzyme Activity Endpoint Assay (purified): Fc?
Its Enzyme Activity Endpoint Assay (purified): Fc is 0 ng/µL.

What about the Enzyme Activity Endpoint Assay (purified): IgG of the same protein?
The Enzyme Activity Endpoint Assay (purified): IgG was 0 ng/µL.

And the Enzyme Activity Endpoint Assay (purified): scIgG?
The Enzyme Activity Endpoint Assay (purified): scIgG was 0 ng/µL.

How did the Enzyme Activity Endpoint Assay: Fab′2 turn out when B6 was run?
Its Enzyme Activity Endpoint Assay: Fab′2 is 2 ng/µL.

What about the Enzyme Activity Endpoint Assay: Fc of the same protein?
Its Enzyme Activity Endpoint Assay: Fc is 74 ng/µL.

And the Enzyme Activity Endpoint Assay: IgG?
The Enzyme Activity Endpoint Assay: IgG was 12 ng/µL.

And the Enzyme Activity Endpoint Assay: scIgG?
The Enzyme Activity Endpoint Assay: scIgG was 66 ng/µL.

B7 was tested. Which Enzyme Activity Endpoint Assay (purified): Fab'2 did it give?
The Enzyme Activity Endpoint Assay (purified): Fab'2 was 612 ng/µL.

What about the Enzyme Activity Endpoint Assay (purified): Fc of the same protein?
The Enzyme Activity Endpoint Assay (purified): Fc was 161 ng/µL.

What about the Enzyme Activity Endpoint Assay (purified): IgG of the same protein?
The Enzyme Activity Endpoint Assay (purified): IgG was 0 ng/µL.

And the Enzyme Activity Endpoint Assay (purified): scIgG?
Its Enzyme Activity Endpoint Assay (purified): scIgG is 0 ng/µL.

Which results are given for B8?
Enzyme Activity Endpoint Assay (purified): Fab'2: 521 ng/µL; Enzyme Activity Endpoint Assay (purified): Fc: 137 ng/µL; Enzyme Activity Endpoint Assay (purified): IgG: 0 ng/µL; Enzyme Activity Endpoint Assay (purified): scIgG: 0 ng/µL

For B9, which Enzyme Activity Endpoint Assay (purified): Fab'2 is on record?
Its Enzyme Activity Endpoint Assay (purified): Fab'2 is 614 ng/µL.

And the Enzyme Activity Endpoint Assay (purified): Fc?
The Enzyme Activity Endpoint Assay (purified): Fc was 158 ng/µL.

And the Enzyme Activity Endpoint Assay (purified): IgG?
The Enzyme Activity Endpoint Assay (purified): IgG was 0 ng/µL.

What about the Enzyme Activity Endpoint Assay (purified): scIgG of the same protein?
Its Enzyme Activity Endpoint Assay (purified): scIgG is 0 ng/µL.

Which results are given for B10?
Enzyme Activity Endpoint Assay (purified): Fab'2: 619 ng/µL; Enzyme Activity Endpoint Assay (purified): Fc: 190 ng/µL; Enzyme Activity Endpoint Assay (purified): IgG: 0 ng/µL; Enzyme Activity Endpoint Assay (purified): scIgG: 0 ng/µL

Which results are given for B11?
Enzyme Activity Endpoint Assay (purified): Fab'2: 733 ng/µL; Enzyme Activity Endpoint Assay (purified): Fc: 191 ng/µL; Enzyme Activity Endpoint Assay (purified): IgG: 0 ng/µL; Enzyme Activity Endpoint Assay (purified): scIgG: 0 ng/µL

With B12 as the protein, how does the Enzyme Activity Endpoint Assay (purified): Fab'2 read?
Its Enzyme Activity Endpoint Assay (purified): Fab'2 is 751 ng/µL.

And the Enzyme Activity Endpoint Assay (purified): Fc?
Its Enzyme Activity Endpoint Assay (purified): Fc is 197 ng/µL.

And the Enzyme Activity Endpoint Assay (purified): IgG?
The Enzyme Activity Endpoint Assay (purified): IgG was 0 ng/µL.

What about the Enzyme Activity Endpoint Assay (purified): scIgG of the same protein?
The Enzyme Activity Endpoint Assay (purified): scIgG was 18 ng/µL.

B13 was tested. Which Enzyme Activity Endpoint Assay (purified): Fab'2 did it give?
Its Enzyme Activity Endpoint Assay (purified): Fab'2 is 772 ng/µL.

What about the Enzyme Activity Endpoint Assay (purified): Fc of the same protein?
The Enzyme Activity Endpoint Assay (purified): Fc was 205 ng/µL.

What about the Enzyme Activity Endpoint Assay (purified): IgG of the same protein?
Its Enzyme Activity Endpoint Assay (purified): IgG is 0 ng/µL.

And the Enzyme Activity Endpoint Assay (purified): scIgG?
Its Enzyme Activity Endpoint Assay (purified): scIgG is 0 ng/µL.

How did the Enzyme Activity Endpoint Assay (purified): Fab'2 turn out when B14 was run?
Its Enzyme Activity Endpoint Assay (purified): Fab'2 is 806 ng/µL.

And the Enzyme Activity Endpoint Assay (purified): Fc?
Its Enzyme Activity Endpoint Assay (purified): Fc is 198 ng/µL.

And the Enzyme Activity Endpoint Assay (purified): IgG?
The Enzyme Activity Endpoint Assay (purified): IgG was 0 ng/µL.

What about the Enzyme Activity Endpoint Assay (purified): scIgG of the same protein?
The Enzyme Activity Endpoint Assay (purified): scIgG was 0 ng/µL.

Which results are given for B15?
Enzyme Activity Endpoint Assay (purified): Fab'2: 637 ng/µL; Enzyme Activity Endpoint Assay (purified): Fc: 163 ng/µL; Enzyme Activity Endpoint Assay (purified): IgG: 0 ng/µL; Enzyme Activity Endpoint Assay (purified): scIgG: 0 ng/µL

For B16, which Enzyme Activity Endpoint Assay (purified): Fab'2 is on record?
The Enzyme Activity Endpoint Assay (purified): Fab'2 was 637 ng/µL.

And the Enzyme Activity Endpoint Assay (purified): Fc?
The Enzyme Activity Endpoint Assay (purified): Fc was 184 ng/µL.

And the Enzyme Activity Endpoint Assay (purified): IgG?
Its Enzyme Activity Endpoint Assay (purified): IgG is 0 ng/µL.

And the Enzyme Activity Endpoint Assay (purified): scIgG?
Its Enzyme Activity Endpoint Assay (purified): scIgG is 0 ng/µL.
